Data as given in the nanobody polyreactivity screen of Harvey et al. (2022).

Test: yeast display, Sf9 membrane polyspecificity reagent, FACS + sequencing; frameworks hold sequencing errors
Outline: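 Sorting gates, low and high (top ~1%), were placed on anti-HA fluorescence to track expression and on streptavidin fluorescence to track reagent binding. A clone's polyreactivity label is taken from the gate it came out of. The reagent was 10% biotinylated, detergent-solubilized Sf9 membrane, applied for 1 hour at 4 °C to galactose-induced yeast display cells.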

Row | Sequence | polyreactivity (PSR sort gate)
1 | QVQLVESGGGLVQAGGSLRLSCAASGIIFRSYTMGWYRQAPGKERELVASITRSGGITYYADSVKGRFTISRDNAKNTVYLQMNSLKPEDTAVYYCAARHRYYYQYRSDYWGQGTQVTVSS | high polyreactivity
2 | QVQLVESGGGLVQAGGSLRLSCAASGYIFDGNAMGLYRQAPGKERELVASISSGTSTYYADSVKGRFTISRDNAKNTVYLQMNSLKPEATAVYYCNAGVEFAASLYYSDNYDYWGQGTQVTVSS | low polyreactivity
3 | QVQLVESGGGLVQAGGSLRLSCAASGRIWVYYTMGWYRQAPGKERELVAAITGSGGSTYYADSVTGRFTISRDNATNTVYLQMNSLKPEDTAVYYCAVYDSYRKFKYWGQGTQVTVSS | high polyreactivity
4 | HFQLVESGGGLVQAGGSLRLSCAASVFIILINVMGWSRQAPGKERELVAVITGGGTTNYADSVKGRFTISRDNANNTVYLQMNSLKPVDTAGYYCAVDAGAGDNDYWGQGTQVTVSS | low polyreactivity
5 | QVQLVESGGGLVQAGGSLRLSCAASGFIFYKNAMGWYRQAPGKERELVAISSSGGSTYYADSVKGRFTISRDNAKNSVYLQMNSLKPEDTAVYYCADRSRRYRGGYWGQGTQVTVSS | high polyreactivity
6 | QVQLVESGGGLVQAGGSLRLSCAASGFIFLQYVMGWYRQAPGKERELVAAITSGGSTYYADSVKGRFTISRDNAKNTVYLQMNSLKPEDTAVYFCATDVADNTFYALYGYDYWGQGTQVTVSS | low polyreactivity
7 | QVQLVESGGCLVQAGGSLRLSCAASGSTFRYNAMGWYRPAPGKERELVAAITSSGGRTYYADSVKGRFTISRDNAKNTVYLQMNSLKPEDTAVYYCARRYLSVRGDSWGQGTQVTVSS | high polyreactivity
8 | QVQRVESGGGLVQAGGSLRLSCAASGRTFYGYAMGWYRQAPGKDRELVASISWSTGSTHYADSVKGRFTISRVNAKNTVYVQMNSLKPEATAVYYCAAPFWRDSYVQIDYDYWGQGTQVTVSS | low polyreactivity
9 | QVQLVESGGGLVQAGGSLRLSCAASGRIFYNNVMGWYRQAPGKERELVAAISGNGGSTYYADSVKGRFTISRDNAKNTVYLQMNSLKPEDTAVYYCAKGSHSYLISTGDYWGQGTQVTVSS | low polyreactivity
10 | QVQLVESGGGLVQAGGSLRLSCAASGFIFGDNAMGWYRQAPGKERELVAAINSGSRTSYADSVKGRFTISRDNAKNTVYLQMNSLKPEDTAVYYCAAESVSSGDNASRYDYWGQGTQVTVSS | low polyreactivity
11 | QVQLVESGGGLVQAGGSLRISCAASGRIFYFNTMGWYRQAPGKERELVAAISLSGGRTYYADSVKGRFTISRDNAKNTVYLQMNSLKREDSAVYYCNAVARSRSRDTSKGDYWGQGTQVTVSS | high polyreactivity
12 | QVQLVESGGGLVQAGGSLRLSCAASGFIFRYYAMGWYRQAPGKERELVAAIRRGGSTSYADSVKGRFTISRDNAKNTVYLQMNSLKPEDTAVYYCNALGNFGMDYWGQGTQVTVSS | high polyreactivity
13 | QVQLVESGGGLVQAGGSLRLSCAASGSIFPQYAMGWYRQAPGTERELVDAITWSGSRTRYADSVKGRFTISRDNAKNTVYLQMNSLKPEDTAVYYCAARFNGQTYYYCGQGTQVTVSS | high polyreactivity
14 | QVQLVESGGGLVQAGGSLRLSCAASGRIFKSNAMGWYRQAPGKERELVASITASGGRTYYADSVKGRFTISRDNAKNTVYLQMNSLKPEDTAVYYCAAGRPFSKYGYWGQGTQVTVSS | high polyreactivity
15 | QVQLVESGGGLVQAGGSLLLSCAASGRIINYYAMGWYRQAPGKEREFVAAITRSGGRTYYADSVKGRFTISRDNAKNTVYLQMNSLKPEDTAVYYCAAPYGTYAYDYWGQGTQVTVSS | high polyreactivity
16 | QDQLVESGAGLVQAGGSLRLSCAASGRIFTPYAMGGYRHAPRKERELVAVIRDGSTYFADSVKGRFTISRDNAKNTVYFQMKSLKPEETAGYYCRYDIWVWWSGAYDYWGQGTQVTVSS | low polyreactivity
17 | QVQLVESGGGLVQAGGSLRLSCAASRITFIYYAMGSYRQAPGKERELVAAINRSGGSTYYADSVKGRFTISRDIAKNTVYLQMNSLKPEDTAVYYCNADRSYWYIHSEYEYWGQGTQVTVSS | high polyreactivity
18 | QVQLVESGGGLVQAGGSLRLSCAASGIIFPPYTMGWYRQAPGKERELVAGITGNSGTTYYADSVKGRFTISRDNAKNTVYLQMNSLKPEDTAVYYCAVRDVYHRYWGQGTQVTVSS | high polyreactivity
19 | QVQLVESGGGLVQAGGSLRLSCAASGSTSRYYDMGWYRQAPGKERELVAAITWSGGTTYYADSVKGRFTISRDNAKNTVYLQMDSLKPEDTAVYYCAVDSQTANDYDYWGQGTQVTVSS | low polyreactivity
20 | QVQLVESGGGLVQAGGSLRLSCAASGIIFKEYAMGGYRPAPGKERELVAAISGRGGSTYYADSVKGRFSISRDNAKNTVYLQMSSLKPEDTAVYYCNAVASWQRYDYWGQGTQVTVSS | high polyreactivity
21 | QVQLVESGGGLVQAGGSLRLSCAASGRTFRFYAMGWYRQAPGKERELVAAISYSGGSTYYADSVKGRFTISRDNAKNTVYLQMNSLKPEDTAVYYCNARYRLGSPVGYNYYTGYDYWGQGTQVTVSS | high polyreactivity

Row | Sequence | polyreactivity (PSR sort gate)
22 | QVQLVESGGGLVQAGGSLRLSCAASGRILYGYAMGWYRQAPGKERELVAGISWRGGSTYYADSVKGRFTISRDNAKNTVYLQMNSLKPEDTAVYYCAARGWPSQVPVRVFRYDYWGQGTQVTVSS | high polyreactivity
23 | QVQLVESGGGLDQAGGSLRLSCAASGITIIGYAMGWYRQAHGKERELVASITSGANTNYADSVKGRFTISRANAKNTVYFQMNSLKPEATAVYYCAAPEHGTYANILGEPLDYWGQGSQVTVSS | low polyreactivity
24 | QVQLVESGGGLVQAGGSLRLSCAASGSIFGVYAMGWYRQAPGKERELVAGITFGDSTTYYADSVKGRFTISRDNAKNTVYLQMNSLKPEDTAVYYCAADNRWEDYKVDYWGQGTQVTVSS | low polyreactivity
25 | QVQLVESGGGLVQAGGSLRLSCAASGRIFRWYAMGWYRQAPGKERELVAAISYSGGSTYYADSVKGRFTISRDNAKNTVYLQMNSLKPEDTAVYYCAAATYYKFDYWGQGTQVTVSS | high polyreactivity
26 | QVQLVESGGGLVQAGGSLRLSCAASGSTFRGYAMGWYRQAPGKERELVASISWNGTSTYYADSVKGRFTISRDNAKNTVYLQMNSLKPEDTAVYYCNVRFNYRGTYDYWGQGTQVTVSS | low polyreactivity
27 | QVQLVDSGGGLVQAGGSLRLSCAASGRIFPYYTMGCYRQAPGKETEFVAAISSSSVSTYYADSVKGRFTISRDNAKNTVYLQMNSLKAEDTAVYYCAAKRVGYHIGYVYPYGYWGQGTQVTVSS | high polyreactivity
28 | QDQLVESGGGLVQAGGSLRLSCAASGRTFYDNVMGWYRQAPGKERELVAAISSGASTNYADSVKGRFTISRDNAKNSVYFQMNSLKPEDSAVYYCATNGGGGWAYEYWGQGTQVTVSS | low polyreactivity
29 | QVQLVESGGGLVQAGGSLRLSCAASRSTFYIYDMGWYRQAPGKESELVARISGSGVSTYYADSVKGRFTISRDNAKNTVYLQMNSLKPEDTAVYYSAADGISHWLYRYDYWGQGTQVTVSS | low polyreactivity
30 | QVQLVESGGGLVQAGGSLRLSCAASGSIFSANAMGWYRQAPGKERELVAAISRSGGRTYYADSVKGRFTISRDNAKNTVYLQMNSLKPEDTAVYYCAADKSRYSVGYDYWGQGTQVTVSS | high polyreactivity
31 | QVQLVETGGVLVQAGGSLSLSCAASGSTFGWYVMGWYRQAPGKERELVAAITYSGDSTYYADSVKGRFTISRDNAKNTVYLQMNSLKPEDTAVYYCAADLSGYGKRYDYWGQGNQVTVSS | low polyreactivity
32 | QVQLVESGGGLVQAGGSLRLSCAASGRIFGFNAMGWYRQAPGKERELVAGITDSSGRTNYADSVKGRFTISRDNAKNTVYLQMNSLKPEDTAVYYCAKDGLVIPADGSDYWGQGTQVTVSS | low polyreactivity
33 | QVQLVESGGGLVQAGGSLRLSCAASGLTFVYYAMGWYRQAPGKERELVASISSTGRTYYADSVKGRFTISRDNAKNTVYLQMNSLKPEDTAVYFSAARSTYFKADYWGQGTQVTVSS | high polyreactivity
34 | QVQLVESGGGLVQAGGSLRLSCAASGSIFTRYVQGWYRQAPGNDRELVAAISGRGSSTYYADSVKGRFTISRDNAKNTVYLQMNSLKPEDTAVYYCAAEIVVFYSEGQRNTFYYWGQGTQVTVSS | high polyreactivity
35 | QVQLVESGGGLVQAGGSLRLSCAASGRIFDYYAMGWYRQAPGKERELVASISRSGGSTYYADSVKGRFTISRDNAKNTVYLQMNSLKPEDTAVYYCAARRGYYYGRVGYWGQGTQVTVTS | high polyreactivity
36 | QVQIVESGGGLVQAGCILRLSCAASGSTFYVNAMGWYRQAPGKEWELVAVISTGGSTYYADSVKGRFTISRDNAKNTVYLQMNSLKPEDTAVYYCAKRDLPDCSGTPNVIPFDYWGQGTQVTVSS | low polyreactivity
37 | QVQLVESGGGLDQAGGSLRLSCAASGRTFYANPMGWYRQAPGKQRELVAAIRRSGGRTYYADSVKGRFTISRDNAKNTVYLQMNSLKPEDTAVYYCATARYRAEMGYWGQGTQVTVSS | high polyreactivity
38 | QVQLQESVGGLVQAGGSLRLSCAATGTIFTDRFMGWYRQAPGKERELVAGISQGTSTNYADSVKGRFTISRDNAKNTVYLQMNSLKPEDTAVYYCAADLSTGNTLPYWGQGTQVTVSS | high polyreactivity
39 | QVQLVESGGGLVQAGGSLRLSCAASGFTFSRYAMGWYRQAPGKERELVAAIDDGGSTYYADSVKGRFTISRDNAKNTVYLQMNSLKPEDTAVYYCNARGYGTLNVRRERMDYWGQGTQVTVSS | high polyreactivity
40 | QVQLVESGGGLVQAGGSLRLSCAASGFTFRYYAMGWYRQAPGKERELVAAITWSGGRTYYADSVKGRFTISRDNAKNTVYLQMNSLKPEDTAVYYCNTPSLWSGEDYWGQGTQVTVSS | high polyreactivity
41 | QVQLVESGGGLVQAGGSLRLTCAASGNTFNNNAMGWYRQAPGKERELVAAISGSGGSTYYADSVKGRFTISRDNAKNTVYLQMNSLKPEDTAVYYCAVRLVHGGKRYGYWGQGTQVTVSS | high polyreactivity
